Reference: paper PMC9482650, “Quantitative fragmentomics allow affinity mapping of interactomes” (Nature Communications, 2022)

Columns and labels:
Assay in all cases: holdup assay
Parameters in all cases: key: below the threshold = too weak to quantify, mostly under pKd 3.1 to 4
Conditions in all cases: plain residues with an end cap or a label only (N-terminal biotin on a linker: ado-ado)
ARHGEF11, O15085 = target: T1, ARHGEF11, O15085
T1 sequence (O15085 42-136, limits assumed, looked up): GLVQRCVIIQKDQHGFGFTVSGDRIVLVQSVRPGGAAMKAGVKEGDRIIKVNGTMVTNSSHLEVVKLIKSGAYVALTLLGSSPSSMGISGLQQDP

CARD11, Q9BXL7 = target: T2, CARD11, Q9BXL7
T2 sequence (Q9BXL7 662-765, limits assumed, looked up): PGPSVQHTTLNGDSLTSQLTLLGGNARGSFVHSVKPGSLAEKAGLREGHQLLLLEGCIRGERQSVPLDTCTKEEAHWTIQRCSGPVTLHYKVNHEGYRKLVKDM

DLG5_1, Q8TDM6 = target: DLG5_1, Q8TDM6
Sequence of DLG5_1, Q8TDM6 (Q8TDM6 617-713): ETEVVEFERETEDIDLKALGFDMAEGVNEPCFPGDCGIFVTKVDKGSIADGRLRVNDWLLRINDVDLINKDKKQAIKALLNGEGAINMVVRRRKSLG

DVL3, Q92997 = target: T3, DVL3, Q92997
T3 sequence (Q92997 244-331, limits assumed, looked up): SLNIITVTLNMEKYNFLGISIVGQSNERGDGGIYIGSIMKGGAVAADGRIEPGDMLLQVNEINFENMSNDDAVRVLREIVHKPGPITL

GIPC2, Q8TF65 = target: GIPC2, Q8TF65
Sequence of GIPC2, Q8TF65 (Q8TF65 112-203): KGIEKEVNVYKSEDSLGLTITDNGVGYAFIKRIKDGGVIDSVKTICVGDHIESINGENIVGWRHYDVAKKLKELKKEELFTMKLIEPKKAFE

GRASP, Q7Z6J2 = target: GRASP, Q7Z6J2
Sequence of GRASP, Q7Z6J2 (Q7Z6J2 96-193): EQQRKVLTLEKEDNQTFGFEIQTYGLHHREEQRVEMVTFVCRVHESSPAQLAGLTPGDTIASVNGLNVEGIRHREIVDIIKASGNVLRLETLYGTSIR

GRIP1_3, Q9Y3R0 = target: T4, GRIP1_3, Q9Y3R0
T4 sequence (Q9Y3R0 247-346, limits assumed, looked up): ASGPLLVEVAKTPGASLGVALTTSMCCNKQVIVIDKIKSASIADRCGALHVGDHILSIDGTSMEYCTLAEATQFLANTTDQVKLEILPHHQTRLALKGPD

GRIP1_7, Q9Y3R0 = target: T5, GRIP1_7, Q9Y3R0
T5 sequence (Q9Y3R0 999-1096, limits assumed, looked up): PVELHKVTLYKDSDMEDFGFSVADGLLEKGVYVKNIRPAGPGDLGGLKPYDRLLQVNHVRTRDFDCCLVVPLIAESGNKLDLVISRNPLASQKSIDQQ

GRIP2_5, Q9C0E4 = target: GRIP2_5, Q9C0E4
Sequence of GRIP2_5, Q9C0E4 (Q9C0E4 544-642): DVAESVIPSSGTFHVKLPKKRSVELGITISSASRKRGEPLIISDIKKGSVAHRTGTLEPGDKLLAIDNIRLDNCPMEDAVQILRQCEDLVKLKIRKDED

HTRA3, P83110 = target: T6, HTRA3, P83110
T6 sequence (P83110 354-453, limits assumed, looked up): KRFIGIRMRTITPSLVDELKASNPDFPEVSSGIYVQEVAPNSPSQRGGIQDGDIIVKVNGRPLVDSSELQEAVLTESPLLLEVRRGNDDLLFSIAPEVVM

IL16_1, Q14005 = target: IL16_1, Q14005
Sequence of IL16_1, Q14005 (Q14005 210-306): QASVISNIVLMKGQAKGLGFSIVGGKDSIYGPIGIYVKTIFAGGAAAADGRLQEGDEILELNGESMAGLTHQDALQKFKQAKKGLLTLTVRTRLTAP

Inadl_10, Q8NI35 = target: Inadl_10, Q8NI35
Sequence of Inadl_10, Q8NI35 (Q8NI35 1673-1763): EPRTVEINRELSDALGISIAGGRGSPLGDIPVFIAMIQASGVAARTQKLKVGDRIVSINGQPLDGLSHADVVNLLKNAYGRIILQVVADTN

LDB3, O75112 = target: LDB3, O75112
Sequence of LDB3, O75112 (O75112 1-94): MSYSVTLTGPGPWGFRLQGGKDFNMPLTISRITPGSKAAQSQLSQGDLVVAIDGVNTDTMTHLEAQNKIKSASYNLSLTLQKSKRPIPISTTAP

LNX1_1, Q8TBB1 = target: LNX1_1, Q8TBB1
Sequence of LNX1_1, Q8TBB1 (Q8TBB1 261-371): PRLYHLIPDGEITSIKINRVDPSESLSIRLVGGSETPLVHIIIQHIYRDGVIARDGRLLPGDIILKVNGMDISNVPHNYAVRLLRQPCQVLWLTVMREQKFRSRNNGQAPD

LNX1_3, Q8TBB1 = target: LNX1_3, Q8TBB1
Sequence of LNX1_3, Q8TBB1 (Q8TBB1 500-596): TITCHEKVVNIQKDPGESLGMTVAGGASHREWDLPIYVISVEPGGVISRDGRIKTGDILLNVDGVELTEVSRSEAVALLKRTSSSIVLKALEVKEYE

LNX2_3, Q8N448 = target: T7, LNX2_3, Q8N448
T7 sequence (Q8N448 463-564, limits assumed, looked up): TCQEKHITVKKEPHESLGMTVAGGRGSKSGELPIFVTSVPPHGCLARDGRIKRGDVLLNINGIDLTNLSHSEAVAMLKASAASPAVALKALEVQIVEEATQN

LRRC7, Q96NW7 = target: T8, LRRC7, Q96NW7
T8 sequence (Q96NW7 1440-1537, limits assumed, looked up): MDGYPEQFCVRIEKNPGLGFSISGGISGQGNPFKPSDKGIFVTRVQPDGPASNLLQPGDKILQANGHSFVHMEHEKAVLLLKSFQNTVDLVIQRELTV

MAGI1_2, Q96QZ7 = target: MAGI1_2, Q96QZ7
Sequence of MAGI1_2, Q96QZ7 (Q96QZ7 456-580): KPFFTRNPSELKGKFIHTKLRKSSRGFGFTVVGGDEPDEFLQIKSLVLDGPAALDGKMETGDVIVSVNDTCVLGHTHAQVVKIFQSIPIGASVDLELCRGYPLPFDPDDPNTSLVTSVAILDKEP

MAGI2_3, Q86UL8 = target: MAGI2_3, Q86UL8
Sequence of MAGI2_3, Q86UL8 (Q86UL8 600-682): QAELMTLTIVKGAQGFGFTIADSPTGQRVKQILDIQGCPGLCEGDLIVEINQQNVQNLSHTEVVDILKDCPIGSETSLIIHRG

MPDZ_12, O75970 = target: T9, MPDZ_12, O75970
T9 sequence (O75970 1857-1958, limits assumed, looked up): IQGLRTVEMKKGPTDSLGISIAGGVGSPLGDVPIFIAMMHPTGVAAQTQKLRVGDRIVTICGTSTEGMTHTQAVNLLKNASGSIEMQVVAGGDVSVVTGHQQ

NHERF4_1, Q86UT5-2 = target: NHERF4_1, Q86UT5-2
Sequence of NHERF4_1, Q86UT5-2 (Q86UT5 other isoform, or with tags, fused parts or gaps): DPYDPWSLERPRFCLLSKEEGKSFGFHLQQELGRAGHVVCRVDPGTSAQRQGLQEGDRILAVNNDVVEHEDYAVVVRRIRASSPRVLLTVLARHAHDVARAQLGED

NHERF4_2, Q86UT5 = target: NHERF4_2, Q86UT5
Sequence of NHERF4_2, Q86UT5 (Q86UT5 220-308): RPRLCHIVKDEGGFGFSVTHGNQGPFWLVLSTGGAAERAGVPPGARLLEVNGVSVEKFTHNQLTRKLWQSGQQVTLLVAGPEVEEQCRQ

NHERF4_4, Q86UT5 = target: NHERF4_4, Q86UT5
Sequence of NHERF4_4, Q86UT5 (Q86UT5 464-550): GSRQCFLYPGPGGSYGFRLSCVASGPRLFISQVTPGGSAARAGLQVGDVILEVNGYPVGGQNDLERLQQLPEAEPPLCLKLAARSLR

PDZRN4_1, Q6ZMN7 = target: PDZRN4_1, Q6ZMN7
Sequence of PDZRN4_1, Q6ZMN7 (Q6ZMN7 213-318): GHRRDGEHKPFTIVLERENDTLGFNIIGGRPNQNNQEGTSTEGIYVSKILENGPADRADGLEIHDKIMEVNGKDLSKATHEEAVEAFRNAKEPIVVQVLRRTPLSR

RHPN1, Q8TCX5 = target: T10, RHPN1, Q8TCX5
T10 sequence (Q8TCX5 508-602, limits assumed, looked up): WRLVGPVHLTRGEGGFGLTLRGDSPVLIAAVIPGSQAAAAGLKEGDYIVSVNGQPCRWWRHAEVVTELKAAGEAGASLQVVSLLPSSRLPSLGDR

SCRIB_1, Q14160 = target: SCRIB_1, Q14160
Sequence of SCRIB_1, Q14160 (Q14160 718-814): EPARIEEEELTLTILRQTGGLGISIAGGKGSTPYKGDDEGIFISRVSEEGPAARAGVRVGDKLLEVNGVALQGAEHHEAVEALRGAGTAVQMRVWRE

TJP1_2, Q07157 = target: TJP1_2, Q07157
Sequence of TJP1_2, Q07157 (Q07157 181-274): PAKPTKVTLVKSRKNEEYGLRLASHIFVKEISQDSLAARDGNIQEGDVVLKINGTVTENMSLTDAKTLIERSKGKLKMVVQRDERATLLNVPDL

TJP1_3, Q07157 = target: TJP1_3, Q07157
Sequence of TJP1_3, Q07157 (Q07157 416-512): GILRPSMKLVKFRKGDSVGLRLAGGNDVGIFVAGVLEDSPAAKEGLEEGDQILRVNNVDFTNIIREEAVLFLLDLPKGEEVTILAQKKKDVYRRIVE

In the case of TMQMSLKDLL [GLA, P06280], the pKd (ARHGEF11, O15085) is reported as 3.99, the pKd (CARD11, Q9BXL7) is reported as “below the threshold” and the pKd (DLG5_1, Q8TDM6) is reported as “below the threshold”. For the same binder, the pKd (DVL3, Q92997) was 3.6, the pKd (GIPC2, Q8TF65) was 3.62 and the pKd (GRASP, Q7Z6J2) was 4.6. The pKd (GRIP1_3, Q9Y3R0) was “below the threshold”, the pKd (GRIP1_7, Q9Y3R0) was “below the threshold” and the pKd (GRIP2_5, Q9C0E4) was 3.51. The pKd (HTRA3, P83110) was “below the threshold”, the pKd (IL16_1, Q14005) was “below the threshold” and the pKd (Inadl_10, Q8NI35) was “below the threshold”. The pKd (LDB3, O75112) was “below the threshold”, the pKd (LNX1_1, Q8TBB1) was 3.64 and the pKd (LNX1_3, Q8TBB1) was “below the threshold”. For the same binder, the pKd (LNX2_3, Q8N448) was “below the threshold”, the pKd (LRRC7, Q96NW7) was “below the threshold” and the pKd (MAGI1_2, Q96QZ7) was “below the threshold”. For the same binder, the pKd (MAGI2_3, Q86UL8) was “below the threshold”, the pKd (MPDZ_12, O75970) was “below the threshold” and the pKd (NHERF4_1, Q86UT5-2) was 3.99. The pKd (NHERF4_2, Q86UT5) was “below the threshold”, the pKd (NHERF4_4, Q86UT5) was “below the threshold” and the pKd (PDZRN4_1, Q6ZMN7) was “below the threshold”. The pKd (RHPN1, Q8TCX5) was 3.79, the pKd (SCRIB_1, Q14160) was “below the threshold” and the pKd (TJP1_2, Q07157) was “below the threshold”. The pKd (TJP1_3, Q07157) was 3.61.

RALRASESGI [ADGRE5, P48960] was tested, and the pKd (ARHGEF11, O15085) was “below the threshold”, the pKd (CARD11, Q9BXL7) was “below the threshold” and the pKd (DLG5_1, Q8TDM6) was “below the threshold”. For the same binder, the pKd (DVL3, Q92997) was “below the threshold”, the pKd (GIPC2, Q8TF65) was “below the threshold” and the pKd (GRASP, Q7Z6J2) was “below the threshold”. For the same binder, the pKd (GRIP1_3, Q9Y3R0) was “below the threshold”, the pKd (GRIP1_7, Q9Y3R0) was “below the threshold” and the pKd (GRIP2_5, Q9C0E4) was “below the threshold”. For the same binder, the pKd (HTRA3, P83110) was “below the threshold”, the pKd (IL16_1, Q14005) was “below the threshold” and the pKd (Inadl_10, Q8NI35) was “below the threshold”. The pKd (LDB3, O75112) was “below the threshold”, the pKd (LNX1_1, Q8TBB1) was “below the threshold” and the pKd (LNX1_3, Q8TBB1) was “below the threshold”. The pKd (LNX2_3, Q8N448) was “below the threshold”, the pKd (LRRC7, Q96NW7) was “below the threshold” and the pKd (MAGI1_2, Q96QZ7) was “below the threshold”. For the same binder, the pKd (MAGI2_3, Q86UL8) was “below the threshold”, the pKd (MPDZ_12, O75970) was “below the threshold” and the pKd (NHERF4_1, Q86UT5-2) was “below the threshold”. The pKd (NHERF4_2, Q86UT5) was “below the threshold”, the pKd (NHERF4_4, Q86UT5) was “below the threshold” and the pKd (PDZRN4_1, Q6ZMN7) was “below the threshold”. The pKd (RHPN1, Q8TCX5) was “below the threshold”, the pKd (SCRIB_1, Q14160) was “below the threshold” and the pKd (TJP1_2, Q07157) was “below the threshold”. The pKd (TJP1_3, Q07157) was “below the threshold”.
